Source: article PMC4946999 (ACS chemical biology, 2016)

Key:
[1] = target: FITC-labeled PIASγ peptide derived from the essential PIASγ LXXLL motif; experiment: fluorescence polarisation
SEC = target: the molecule itself; experiment: SEC

## Nurr1 ligand-binding domain (LBD) (from UniProt P43354 328-598) (domain or fragment)
[1]
  Kd: 3.5 µM

B1: Nurr1 ligand-binding domain (LBD) (domain or fragment)
chain: MVKEVVRTDSLKGRRGRLPSKPKSPQEPSPPSPPVSLISALVRAHVDSNPAMTSLDYSRFQANPDYQMSGDDTQHIQQFYDLLTGSMEIIRGWAEKIPGFADLPKADQDLLFESAFLELFVLRLAYRSNPVEGKLIFCNGVVLHRLQCVRGFGEWIDSIVEFSSNLQNMNIDISAFSCIAALAMVTERHGLKEPKRVEELQNKIVNCLKDHVTFNNGGLNRPNYLSKLLGKLPELRTLCTQGLQRIFYLKLEDLVPPPAIIDKLFLDTLPF
SEC
  stoichiometry N: 2
